Experimental data as given in patent US9650419B2, “Biocompatible protein, biocompatible protein gel and biocompatible conducting protein gel comprising the protein and method for preparing the same” (Research & Business Foundation SUNGKYUNKWAN UNIVERSITY, priority 2014, dated 2017).

Target: T1, trypsin (Bos taurus, UniProt P00760)
T1 construct: gene PRSS1
T1 sequence (P00760 24-246): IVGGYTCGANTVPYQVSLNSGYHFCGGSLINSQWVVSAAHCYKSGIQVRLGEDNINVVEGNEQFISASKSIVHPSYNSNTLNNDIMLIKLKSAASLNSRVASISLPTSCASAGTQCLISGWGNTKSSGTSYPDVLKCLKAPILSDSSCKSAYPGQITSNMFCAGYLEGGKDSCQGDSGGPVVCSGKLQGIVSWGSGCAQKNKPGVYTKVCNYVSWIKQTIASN
Experiment: proteolytic susceptibility with trypsin (HPLC, MALDI-TOF)
Format: in vitro ADME
Details: 100 μM peptide stock, 200 μM protease stock, TBS buffer pH 7.5, one, seven, thirty days at room temperature
Method: In order to confirm whether β-peptide is degraded by a protease, proteolytic susceptibility of β-VhexS was measured with trypsin, chymotrypsin, and subtilisin which cleave protein nonspecifically. Peptide and pretease stock solution was prepared by desolving 100 μM of beta-VhexS and 200 μM of each pretease in TBS buffer at pH 7.5. 10 μL of stock solution. 40 μL of peptide stock solution and 10 μL of protease stock solution were transferred into micro tube and incubated for one, seven, thirty days at room temperature. The reaction was quenched with adding 100 μL of 1% TFA solution. As a control sample, 40 μL of peptide stock solution without protease was also treated with 1% TFA solution.
Degree of peptide degradation was analyzed with high performance liquid chromatography using C3 column for Agilent analysis. […] The HPLC peaks of both standard sample and enzyme treated peptide sample were compared, and the peaks appeared only for enzyme treated sample were analyzed with MALDI-TOF. The results confirmed that β-peptide was not degraded by enzymes.

## Ac-KVK EVF FVK EVF FVK EVY-NH2 (Ac-KVKEVFFVKEVFFVKEVY-NH2; also: beta-amino acids, places not given here) [β-peptide]
  degradation of peptide by protease: not degraded
